Consider two molecules from PMC4619763, “A Novel Highly Thermostable Multifunctional Beta-Glycosidase from Crenarchaeon Acidilobus saccharovorans” (Archaea, 2015).

The target in one series is T1, Asac_1390 (Acidilobus saccharovorans, UniProt D9PZ08).
T1 construct: full length, 490 residues, about 55 kDa on SDS-PAGE; pQE60 NcoI/BglII, expressed in E. coli DLT1270 pRARE2; purified by double heat treatment; no secretion signal; no tag mentioned (reverse primer carries the stop codon)
T1 sequence (D9PZ08 1-490): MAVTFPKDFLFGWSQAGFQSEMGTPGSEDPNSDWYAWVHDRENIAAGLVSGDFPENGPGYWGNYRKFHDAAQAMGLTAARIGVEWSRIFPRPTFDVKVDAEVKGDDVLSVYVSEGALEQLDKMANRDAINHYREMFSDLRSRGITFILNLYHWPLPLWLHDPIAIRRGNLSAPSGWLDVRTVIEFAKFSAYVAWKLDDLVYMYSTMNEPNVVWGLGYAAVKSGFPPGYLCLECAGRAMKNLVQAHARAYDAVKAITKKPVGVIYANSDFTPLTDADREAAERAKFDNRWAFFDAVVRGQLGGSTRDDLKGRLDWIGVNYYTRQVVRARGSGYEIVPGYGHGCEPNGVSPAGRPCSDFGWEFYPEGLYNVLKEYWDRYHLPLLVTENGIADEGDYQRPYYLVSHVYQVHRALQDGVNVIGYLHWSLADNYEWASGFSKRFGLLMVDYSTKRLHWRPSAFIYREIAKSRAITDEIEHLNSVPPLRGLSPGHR
In words: oNPGal hydrolysis, Cornish-Bowden and Dixon plots. In kind it is biochemical. Conditions: mixed inhibition, dissociation constant of the EIS complex; otherwise as the row above.

Substrate in series [1]: O=[N+]([O-])c1ccc(O[C@@H]2O[C@H](CO)[C@@H](O)[C@H](O)[C@@H]2O)cc1
In words: purified protein. Conditions: 0.1 M sodium phosphate pH 7.0, 93°C. The class given is biochemical, Acidilobus saccharovorans.

Substrate in series [2]: O=[N+]([O-])c1ccc(O[C@@H]2O[C@H](CO)[C@@H](O)[C@H](O)[C@H]2O)cc1
In words: purified protein. The class given is biochemical, Acidilobus saccharovorans. Conditions: 0.1 M sodium phosphate pH 7.0, 93°C.

Substrate in series [3]: O=[N+]([O-])c1ccccc1O[C@@H]1O[C@H](CO)[C@H](O)[C@H](O)[C@H]1O
In words: purified protein. In kind it is biochemical, Acidilobus saccharovorans. Conditions: 0.1 M sodium phosphate pH 7.0, 93°C.

Substrate in series [4]: O=[N+]([O-])c1ccc(O[C@@H]2OC[C@@H](O)[C@H](O)[C@H]2O)cc1
In words: purified protein. In kind it is biochemical, Acidilobus saccharovorans. Conditions: 0.1 M sodium phosphate pH 7.0, 93°C.

Substrate in series [5]: O=[N+]([O-])c1ccc(O[C@@H]2O[C@H](CO)[C@H](O)[C@H](O)[C@H]2O)cc1
In words: purified protein. The class given is biochemical, Acidilobus saccharovorans. Conditions: 0.1 M sodium phosphate pH 7.0, 93°C.

As to `OC[C@H]1OC(O)[C@H](O)[C@@H](O)[C@@H]1O` (stereo partly drawn) [glucose], at Asac_1390, the “K i′” value stood at 158 mM.

B1: Asac_1390 (Acidilobus saccharovorans 345-15) (protein)
chain: MAVTFPKDFLFGWSQAGFQSEMGTPGSEDPNSDWYAWVHDRENIAAGLVSGDFPENGPGYWGNYRKFHDAAQAMGLTAARIGVEWSRIFPRPTFDVKVDAEVKGDDVLSVYVSEGALEQLDKMANRDAINHYREMFSDLRSRGITFILNLYHWPLPLWLHDPIAIRRGNLSAPSGWLDVRTVIEFAKFSAYVAWKLDDLVYMYSTMNEPNVVWGLGYAAVKSGFPPGYLCLECAGRAMKNLVQAHARAYDAVKAITKKPVGVIYANSDFTPLTDADREAAERAKFDNRWAFFDAVVRGQLGGSTRDDLKGRLDWIGVNYYTRQVVRARGSGYEIVPGYGHGCEPNGVSPAGRPCSDFGWEFYPEGLYNVLKEYWDRYHLPLLVTENGIADEGDYQRPYYLVSHVYQVHRALQDGVNVIGYLHWSLADNYEWASGFSKRFGLLMVDYSTKRLHWRPSAFIYREIAKSRAITDEIEHLNSVPPLRGLSPGHR
notes: full length, 490 residues, about 55 kDa on SDS-PAGE; pQE60 NcoI/BglII, expressed in E. coli DLT1270 pRARE2; purified by double heat treatment; no secretion signal; no tag mentioned (reverse primer carries the stop codon)
In general, Km refers to the substrate concentration at which the rate is half of its maximum. As usually defined, the Vmax is the top rate of the reaction or transport when substrate is in excess. For orientation: kcat means the number of substrate molecules converted per active site and unit of time at saturation. A word on the kcat/Km: it is the turnover number divided by the Michaelis constant. B1: the Michaelis constant (Km) in the series “purified protein [1]” came out at 2.4 mM; in the series “purified protein [2]”, 0.24 mM; in the series “purified protein [3]”, 2.0 mM; in the series “purified protein [4]”, 4.65 mM; in the series “purified protein [5]”, 2.9 mM. For the same molecule, the Vmax is 62.8 µmol/min/mg in “purified protein [1]”; 344 µmol/min/mg in the series “purified protein [2]”; 469 µmol/min/mg in the series “purified protein [3]”; 124 µmol/min/mg in the series “purified protein [4]”; 499 µmol/min/mg in “purified protein [5]”. Besides, the kcat in the series “purified protein [1]” stood at 58.2 s⁻¹; in “purified protein [2]” it was 318 s⁻¹; in the series “purified protein [3]”, 434 s⁻¹; in “purified protein [4]” it was 115 s⁻¹; in the series “purified protein [5]” it was 462 s⁻¹. Besides, the kcat/Km in “purified protein [1]” is 24200 M⁻¹ s⁻¹; in the series “purified protein [2]”, 1.33e+06 M⁻¹ s⁻¹; in the series “purified protein [3]”, 217000 M⁻¹ s⁻¹; in the series “purified protein [4]” it was 24600 M⁻¹ s⁻¹; in the series “purified protein [5]” it was 160000 M⁻¹ s⁻¹.
